Measured values reported in patent publication US20020177126A1.

Experiments:
[1] = target: RSV F glycoprotein (NUF4) (respiratory syncytial virus (RSV)) (UniProt P03420); test: BIAcore, Mab vs NUF4, 1:1
[2] = target: RSV F glycoprotein (NUF4) (respiratory syncytial virus (RSV)) (UniProt P03420); test: BIAcore, Mab vs NUF4, 2:1
[3] = target: RSV F glycoprotein (NUF4) (respiratory syncytial virus (RSV)) (UniProt P03420); test: ITC, NUF4 titrated into antibody
[4] = target: RSV F glycoprotein (NUF4) (respiratory syncytial virus (RSV)) (UniProt P03420); test: ITC, NUF4 titrated into antibody, 35 °C

A4B4 (monoclonal antibody), sequence (VH): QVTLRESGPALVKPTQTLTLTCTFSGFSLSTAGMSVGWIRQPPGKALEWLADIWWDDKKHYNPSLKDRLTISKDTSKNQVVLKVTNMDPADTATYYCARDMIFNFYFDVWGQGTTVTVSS
A4B4 (monoclonal antibody), sequence (VL): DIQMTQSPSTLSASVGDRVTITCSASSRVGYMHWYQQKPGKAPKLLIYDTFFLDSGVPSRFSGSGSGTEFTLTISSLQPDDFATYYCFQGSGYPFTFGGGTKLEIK
RSV F glycoprotein (NUF4) (respiratory syncytial virus (RSV)), sequence (P03420 26-524): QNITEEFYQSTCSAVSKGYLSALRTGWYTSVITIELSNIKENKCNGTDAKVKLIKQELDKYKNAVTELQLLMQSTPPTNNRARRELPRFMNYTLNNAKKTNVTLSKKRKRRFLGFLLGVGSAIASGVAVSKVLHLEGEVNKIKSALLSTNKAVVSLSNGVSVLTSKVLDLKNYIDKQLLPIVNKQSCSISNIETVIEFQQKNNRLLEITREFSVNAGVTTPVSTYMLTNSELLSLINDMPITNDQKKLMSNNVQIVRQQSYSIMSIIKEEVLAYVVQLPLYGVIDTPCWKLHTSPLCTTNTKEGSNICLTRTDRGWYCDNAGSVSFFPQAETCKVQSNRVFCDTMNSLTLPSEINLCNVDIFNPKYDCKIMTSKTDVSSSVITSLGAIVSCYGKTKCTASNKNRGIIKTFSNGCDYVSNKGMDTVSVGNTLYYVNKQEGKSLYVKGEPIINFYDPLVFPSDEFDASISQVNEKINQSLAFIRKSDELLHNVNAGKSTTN
SYNAGIS® (antibody), sequence (VH): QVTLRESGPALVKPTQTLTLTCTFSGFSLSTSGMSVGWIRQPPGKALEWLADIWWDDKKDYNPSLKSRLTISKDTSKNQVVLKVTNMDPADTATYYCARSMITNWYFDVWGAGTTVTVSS
SYNAGIS® (antibody), sequence (VL): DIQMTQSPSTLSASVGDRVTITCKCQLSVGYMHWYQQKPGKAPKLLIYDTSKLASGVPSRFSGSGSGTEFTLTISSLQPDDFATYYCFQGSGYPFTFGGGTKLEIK

| Substance | Kd [1] [nM] | koff [1] [s⁻¹] | kon [1] [M⁻¹ s⁻¹] | number in parentheses after KD (fold vs SYNAGIS) [1] [fold] | Kd [2] [nM] | koff [2] [s⁻¹] | kon [2] [M⁻¹ s⁻¹] | number in parentheses after KD (fold vs SYNAGIS) [2] [fold] | Hb in kJ mol^-1 (binding enthalpy) [3] [kcal/mol] | Ka [4] [M⁻¹] | Kd [4] [nM] |
| --- | --- | --- | --- | --- | --- | --- | --- | --- | --- | --- | --- |
| A4B4 (monoclonal antibody) | 0.57 | 0.000282 | 496000 | 15 | 2 | 0.000401 | 203000 | 156 | 22.2 | 2.69e+08 | 3.7 |
| SYNAGIS® (antibody) | 8.7 | 0.00265 | 304000 | 1 | 312 | 0.0242 | 78000 | 1 | 17 | 1.23e+06 |  |
